This note sets out measurements from patent US20240309045A1, “NLRP3 INFLAMMASOME INHIBITORY PEPTIDE FOR TREATMENT OF INFLAMMATORY DISEASES” (AJOU UNIVERSITY INDUSTRY-ACADEMIC COOPERATION FOUNDATION, priority 2021, published 2024).

Experiment [1] addresses T1, NLRP3 inflammasome (Homo sapiens, UniProt Q96P20+Q9ULZ3).
T1 construct: THP1-derived macrophages were primed with LPS (10 ng/ml) for 3 hours and then treated with peptides; endogenous in cells; host or cells: THP1-derived macrophages
The experiment can be described thus: NLRP3-mediated IL-18 secretion ELISA (LPS priming, nigericin activation). The class given is cell-based. The note with it: THP1-derived macrophages, LPS-primed, nigericin (FIG. 1E, 4B). On the procedure: (§1) THP1-derived macrophages were seeded at a density of […] in a 96-well plate (BD Biosciences) and grown overnight. The next day, the cells were primed with LPS (Sigma-Aldrich) at a concentration of 10 ng/ml or human tumor necrosis factor alpha (TNF-α; R&D Systems, Minneapolis, Minn., USA) at a concentration of 100 ng/ml for 3 hours, and then treated with peptides at different concentrations for 1 hour. In order to activate the NLRP3 pathway, LPS-primed cells were stimulated for 2 hours with […] nigericin (Invivogen, Carlsbad, CA, USA), which is a known NLRP3 activator. After 6 hours of treatment, the secretion levels of IL-1β and IL-18 were evaluated using a Human IL-1β Uncoated ELISA Kit (Invitrogen) and a Human IL-18 ELISA kit (RayBiotech, Norcross, GA, USA), respectively. The secretion levels of IL-8 and TNF-α were analyzed using a Human IL-8 ELISA kit and a TNF-α ELISA Kit (Invitrogen), respectively. In all experiments, absorbance was analyzed at an appropriate wavelength using a microplate spectrophotometry system (Molecular Devices Inc., Silicon Valley, CA, USA).
(§2) Overall, activation of the NLRP3 inflammasome results not only in cleavage of pro-IL-1β and pro-IL-18, but also in release of active IL-1β and IL-18 and other soluble inflammatory mediators. Thus, NIP was mainly evaluated for regulatory effect on the NLPR3-mediated pathway through the assessment of IL-1β secretion. […]

The target of experiment [2] is T1, NLRP3 inflammasome. Briefly: NLRP3-mediated IL-1β secretion ELISA (LPS priming, nigericin activation). Format: cell-based. Conditions: THP1-derived macrophages, LPS-primed, peptide 1 to 20 μM (FIG. 1E). On the procedure: as §1, §2
A general note: ELISA stands for enzyme-linked immunosorbent assay.

T1 sequence (Q96P20 whole entry): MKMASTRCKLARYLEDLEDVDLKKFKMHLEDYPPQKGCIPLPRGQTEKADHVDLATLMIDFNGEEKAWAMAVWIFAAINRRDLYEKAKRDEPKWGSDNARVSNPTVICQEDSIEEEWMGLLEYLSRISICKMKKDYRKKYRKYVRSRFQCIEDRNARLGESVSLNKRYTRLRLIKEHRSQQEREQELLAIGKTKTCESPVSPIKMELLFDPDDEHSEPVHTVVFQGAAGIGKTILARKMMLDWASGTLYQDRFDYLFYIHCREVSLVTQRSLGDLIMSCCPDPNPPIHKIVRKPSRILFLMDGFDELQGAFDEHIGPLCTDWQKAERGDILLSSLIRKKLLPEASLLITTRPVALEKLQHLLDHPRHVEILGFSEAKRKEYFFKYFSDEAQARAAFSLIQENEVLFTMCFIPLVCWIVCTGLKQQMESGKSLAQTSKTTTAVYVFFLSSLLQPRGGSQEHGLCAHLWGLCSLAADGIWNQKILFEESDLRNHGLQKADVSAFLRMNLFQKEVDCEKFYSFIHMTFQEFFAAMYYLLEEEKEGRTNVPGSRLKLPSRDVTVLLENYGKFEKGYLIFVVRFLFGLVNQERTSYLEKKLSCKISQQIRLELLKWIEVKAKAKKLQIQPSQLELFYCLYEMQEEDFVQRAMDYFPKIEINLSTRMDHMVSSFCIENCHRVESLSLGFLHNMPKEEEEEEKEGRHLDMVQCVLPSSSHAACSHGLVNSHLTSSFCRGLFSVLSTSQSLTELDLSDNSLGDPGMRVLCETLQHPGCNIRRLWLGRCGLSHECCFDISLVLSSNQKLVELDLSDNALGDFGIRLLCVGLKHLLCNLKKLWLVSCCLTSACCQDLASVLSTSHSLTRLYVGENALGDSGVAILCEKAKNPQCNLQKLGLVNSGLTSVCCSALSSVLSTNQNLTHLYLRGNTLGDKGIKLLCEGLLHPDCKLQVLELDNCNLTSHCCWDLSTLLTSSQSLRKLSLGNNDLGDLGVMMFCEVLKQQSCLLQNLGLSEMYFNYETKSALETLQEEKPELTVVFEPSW
T1 sequence (Q9ULZ3 whole entry): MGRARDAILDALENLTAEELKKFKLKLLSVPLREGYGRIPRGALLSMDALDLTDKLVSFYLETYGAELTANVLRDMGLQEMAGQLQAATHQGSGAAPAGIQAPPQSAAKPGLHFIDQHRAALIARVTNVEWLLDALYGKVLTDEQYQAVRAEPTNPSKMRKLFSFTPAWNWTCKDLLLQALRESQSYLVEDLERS

Regarding “DALDLTDKLVS (NLRP3/ASC-inhibitory peptide 7 (NIP7)) [evaluated fused at the N-terminus with penetratin]”, in the experiment with NLRP3 inflammasome [1], the “Inhibition of IL-18 secretion” value is reported as “did not have the ability to inhibit”. For the same sequence, in the experiment with NLRP3 inflammasome [2], the “Inhibition of NLPR3-mediated IL-1β secretion” value was “did not have the ability to inhibit”.
